The source of these data is US20070105771A1 (Y S THERAPEUTICS, published 2007).

Changes are numbered by the printed parent chain.

The labels stand for the following.
B1: Fab comprising X385 VH and CM03 VL (Fab, V domains shown)
VH: EVQLVQSGGGVKQPGETLRLTCTASGFSLTTYGVHWVRQAPGKGLEWVGVIWGDGRTDYDAAFMSRVTISKDTSKSTAYLQMNSLRAEDTAVYYCMRNRHDWFDYWGQGTTVTVSS
VL: DIQMTQSPSSLSASLGDRVTITCSASQGIRNSLNWYQQKPDGAVKLLIYYSSNLHSGVPSRFSGSGSGTDFSLTISNLEPEDIATYYCQQSIKLPFTFGSGTKLEIK
notes: Fab made in E. coli
B2: Fab comprising X386 VH and CM03 VL (Fab, V domains shown)
VH: B1 VH with Q6E, G9A, K12E, E16G, V48M, K71R, M82L, M96V
VL: B1 VL
notes: Fab made in E. coli
B3: Fab comprising X388 VH and CM03 VL (Fab, V domains shown)
VH: B1 VH with V11L, T21S, F27Y, V48M, A61S, A62S, M82L, M96T
VL: B1 VL
notes: Fab made in E. coli
B4: Fab comprising X384 VH and CM03 VL (Fab, V domains shown)
VH: B1 VH with Q6E, G9A, E16G, A78V
VL: B1 VL
notes: Fab made in E. coli
B5: Fab comprising X387 VH and CM03 VL (Fab, V domains shown)
VH: EVQLVESGAELVQPGGSLRLTCKASGFTLNTYGVHWVRQAPGKGLEWMGVIWGGGRTDYDASFMSRVTISKDNSKNTAYLQLNSLRAEDTAVYYCTRSRHDWFDYWGQGTTVTVSS
VL: B1 VL
notes: Fab made in E. coli
B6: Fab X389 (X384 VH and X376 VL) (Fab, V domains shown)
VH: B1 VH with Q6E, G9A, E16G, A78V
VL: DILMTQSPSSLSASPGDRVTISCRASQDIRNNLNWYQQKPGQAPRLLIYYSSNLHSGVPDRFSGSGSGTDFTLTISRLEPEDFAAYYCQQSIKLPLTFGSGTKVEIK
notes: Fab made in E. coli
B7: Fab X394 (X384 VH and X394 VL) (Fab, V domains shown)
VH: B1 VH with Q6E, G9A, E16G, A78V
VL: B6 VL with H55Q, S56T, D60A
notes: Fab made in E. coli
B8: Fab X430 (X399 VH and X394 VL) (Fab, V domains shown)
VH: B1 VH with T30S, A78V
VL: B6 VL with H55Q, S56T, D60A
notes: also called Fab X429
B9: Fab X390 (X385 VH and X376 VL) (Fab, V domains shown)
VH: B1 VH
VL: B6 VL
notes: Fab made in E. coli
B10: Fab X396 (X385 VH and X380 VL) (Fab, V domains shown)
VH: B1 VH
VL: EIEMTQSPSSLSVSAGERATISCSASQDIRNSLNWYQQKPGQAPRLLIYYSSNLHTGVPARFSGSGSGTDFTLTISRLEPEDVAIYYCQQSNKLPLTFGSGTKVEIK
notes: Fab made in E. coli
B11: Fab X391 (X388 VH and X376 VL) (Fab, V domains shown)
VH: B1 VH with V11L, T21S, F27Y, V48M, A61S, A62S, M82L, M96T
VL: B6 VL
notes: Fab made in E. coli
B12: Fab X431 (X420 VH and X380 VL) (Fab, V domains shown)
VH: B1 VH with Q6E, T30S, A78V
VL: B10 VL
notes: also called Fab X420
B13: Fab X399 (X399 VH and X380 VL) (Fab, V domains shown)
VH: B1 VH with T30S, A78V
VL: B10 VL
notes: Fab made in E. coli
B14: Fab X395 (X384 VH and X380 VL) (Fab, V domains shown)
VH: B1 VH with Q6E, G9A, E16G, A78V
VL: B10 VL
notes: Fab made in E. coli
B15: rhuMAb 410 (antibody, human IgG1, V domains shown)
VH: B1 VH with V11L, T21S, F27Y, V48M, A61S, A62S, M82L, M96T
VL: DILMTQSPSSLSASPGDRVTISCRASQDIRNNLNWYQQKPGQAPRLLIYYSSNLHSGVPDRFSGSGSGTDFTLTISRLEPEDFAAYYCQQSIKLPLTFGSGTKVEIKR
B16: Fab comprising X377 VL and CM03 VH (Fab, V domains shown)
VH: QVKLQESGPGLVQPSQTLSITCTVSGFSLTTYGVHWVRQSPGKGLEWLGVIWGGGRTDYDAAFISRLSISKDNSKSQVFFKMNSLQANDTAIYYCVRNRHDWFDYWGQGTTVTVSS
VL: B10 VL with M4L, A15L, E17D, A19V, S32N, H55Q, I85A, N92I, L96F
notes: Fab made in E. coli; also called X377 Fab
B17: Fab comprising X378 VL and CM03 VH (Fab, V domains shown)
VH: B16 VH
VL: DIEMTQSPSSLSASAGERVTISCRASQGIRNSLNWYQQKPGQAPRLLIYYSSNLQTGVPSRFSGSGSGTDFTLTISRLQAEDFATYYCQQSNKLPFTFGSGTKVEIK
notes: Fab made in E. coli
B18: Fab comprising X379 VL and CM03 VH (Fab, V domains shown)
VH: B16 VH
VL: DILLTQSPSSLSATPGERATITCRASQGIRNNLNWYQQKPGQAPRLLIYYSSNLQSGVPSRFSGSGSGTDFTLTISRLQPEDVAAYYCQQSIKLPFTFGSGTKVEIK
notes: Fab made in E. coli
B19: Fab comprising X376 VL and CM03 VH (Fab, V domains shown)
VH: B16 VH
VL: B6 VL
notes: Fab made in E. coli
B20: Fab comprising X380 VL and CM03 VH (Fab, V domains shown)
VH: B16 VH
VL: B10 VL
notes: Fab made in E. coli
B21: Fab comprising X381 VL and CM03 VH (Fab, V domains shown)
VH: B16 VH
VL: B17 VL with D1E, M4L, A13V, A15P, E17D, R24S, Q55H, S60A, N92I, F96L
notes: Fab made in E. coli

In one test the target is T1, Purified recombinant human CD26 (rhDipeptidyl peptidase IV), R&D Systems CAT #1180-SE (human, UniProt P27487 29-766).
T1 construct: Bought recombinant protein; also called hu-CD26; soluble human CD26
T1 sequence (P27487 29-766 limits assumed): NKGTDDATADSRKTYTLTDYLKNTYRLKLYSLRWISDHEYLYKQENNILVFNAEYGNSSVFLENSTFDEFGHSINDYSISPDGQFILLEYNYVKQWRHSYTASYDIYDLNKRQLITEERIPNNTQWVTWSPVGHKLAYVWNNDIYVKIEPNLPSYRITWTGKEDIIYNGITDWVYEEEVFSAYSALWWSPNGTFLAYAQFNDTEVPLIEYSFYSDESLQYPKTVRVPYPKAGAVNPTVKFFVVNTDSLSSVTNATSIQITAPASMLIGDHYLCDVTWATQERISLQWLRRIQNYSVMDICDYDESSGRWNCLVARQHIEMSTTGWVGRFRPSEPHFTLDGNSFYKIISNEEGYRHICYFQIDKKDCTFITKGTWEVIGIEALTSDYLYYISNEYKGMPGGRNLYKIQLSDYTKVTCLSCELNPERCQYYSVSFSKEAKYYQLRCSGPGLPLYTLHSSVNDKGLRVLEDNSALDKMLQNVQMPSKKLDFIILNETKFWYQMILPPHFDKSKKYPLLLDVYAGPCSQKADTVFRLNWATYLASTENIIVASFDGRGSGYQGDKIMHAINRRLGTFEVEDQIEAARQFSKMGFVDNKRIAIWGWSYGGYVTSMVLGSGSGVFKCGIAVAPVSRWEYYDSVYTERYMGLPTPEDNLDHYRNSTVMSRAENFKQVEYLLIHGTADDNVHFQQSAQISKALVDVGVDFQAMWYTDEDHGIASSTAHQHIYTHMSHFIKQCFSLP
The test is described as follows: SPR (Biacore), Fab. The method, then:
(§1) Fabs produced in E. coli as described below were diluted in PBS in a concentration of ˜0.5 μM for the assay. A typical recording included a 3 minute period of injection of the Fab followed by a period of 15 minutes of dissociation, and analysis was performed based on the raw data of the binding curves accordingly.
(In general: Surface plasmon resonance follows binding to a sensor surface in real time, without labels.)
For B1, the Kd (in general, the constant that tells how readily two partners part at equilibrium) is 1.47 nM; the koff (in general, the rate constant with which the complex falls apart) was determined as 0.000375 s⁻¹; the kon (commonly a measure of how fast the partners come together) came out at 256000 M⁻¹ s⁻¹.

B2: the Kd stood at 2.71 nM, the koff was 0.000498 s⁻¹ and the kon came out at 184000 M⁻¹ s⁻¹.

In the case of B3, the Kd stood at 2.98 nM, the koff worked out at 0.000698 s⁻¹ and the kon worked out at 235000 M⁻¹ s⁻¹.

Take B4: the Kd turned out to be 1.19 nM, the koff is 0.000312 s⁻¹ and the kon amounted to 262000 M⁻¹ s⁻¹.

For the molecule B5, the dissociation constant Kd was 51.1 nM, the koff worked out at 0.01 s⁻¹ and the kon was 196000 M⁻¹ s⁻¹.

For a further test, the target named is T1, Purified recombinant human CD26 …. Kind of test: SPR (Biacore), Fab. This is another data set of the same source.
Consider B6, for which the Kd is 0.38 nM.

In the case of B7, the Kd was 0.58 nM.

With B8, the Kd was 1.19 nM.

For the molecule B9, the Kd is 0.96 nM.

For the molecule B10, the Kd was found to be 2.53 nM.

With B11, the Kd worked out at 2.12 nM.

Take B12: the Kd was found to be 0.92 nM.

As to B13, the Kd turned out to be 2.85 nM.

For the molecule B14, the Kd was determined as 3.26 nM.

The next test shares this target. The test is described as follows: SPR (Biacore), CD26 preoccupied by the Fab; competitor 14D10 ascites. An excerpt: A specificity analysis of selected Fabs comprising pairs of variant VH and VL sequences was done. […] The analysis was done using Biacore® as described in Example 1.
As for B6, the “percent decrease in binding of 14D10 to CD26” value (from here on “percent decrease in binding”) is not below 80%.

As to B9, the “percent decrease in binding” value is not below 80%.

Turning to B10, the “percent decrease in binding” value is not below 80%.

Take B11: the “percent decrease in binding” value was not below 80%.

For the molecule B14, the “percent decrease in binding” value is not below 80%.

The target of the next test is human CD26 on the cell surface (human, UniProt P27487 1-766). The test is described as follows: cell-based or functional assay.
Sequence of human CD26 on the cell surface (P27487 whole entry): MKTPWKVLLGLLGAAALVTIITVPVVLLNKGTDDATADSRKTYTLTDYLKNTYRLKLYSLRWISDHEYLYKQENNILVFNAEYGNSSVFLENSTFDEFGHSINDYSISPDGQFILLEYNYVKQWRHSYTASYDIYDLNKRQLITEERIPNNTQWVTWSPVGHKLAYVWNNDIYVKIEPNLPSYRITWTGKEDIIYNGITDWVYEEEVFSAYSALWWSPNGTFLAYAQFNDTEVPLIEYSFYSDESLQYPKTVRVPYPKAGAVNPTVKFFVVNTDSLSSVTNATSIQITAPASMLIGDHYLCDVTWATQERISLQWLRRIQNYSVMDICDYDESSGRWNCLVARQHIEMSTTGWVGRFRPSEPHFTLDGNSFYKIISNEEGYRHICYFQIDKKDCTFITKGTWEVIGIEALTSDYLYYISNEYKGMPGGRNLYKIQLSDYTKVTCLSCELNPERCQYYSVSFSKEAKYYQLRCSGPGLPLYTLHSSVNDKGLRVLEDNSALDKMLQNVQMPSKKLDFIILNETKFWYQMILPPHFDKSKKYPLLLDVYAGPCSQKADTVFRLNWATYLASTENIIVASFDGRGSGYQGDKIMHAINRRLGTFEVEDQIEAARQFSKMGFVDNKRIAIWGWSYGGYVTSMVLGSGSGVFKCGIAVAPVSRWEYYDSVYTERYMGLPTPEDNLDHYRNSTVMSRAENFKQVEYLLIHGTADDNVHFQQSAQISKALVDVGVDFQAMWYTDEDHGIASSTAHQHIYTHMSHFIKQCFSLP
For B15, the “percent inhibition, MTT assay, Jurkat CD26+ cells, 0.05 ug/ml” value was determined as 4%; the “percent inhibition, MTT assay, Jurkat CD26+ cells, 0.25 ug/ml” value was 10.7%; the “percent inhibition, MTT assay, Jurkat CD26+ cells, 0.5 ug/ml” value was found to be 14%; the “percent inhibition, MTT assay, Jurkat CD26+ cells, 2.5 ug/ml” value was 27.5%. The “percent inhibition, MTT assay, Jurkat CD26+ cells, 5 ug/ml” value was determined as 33.5%.

The target in a further test is T1, Purified recombinant human CD26 …. Kind of test: SPR (Biacore), Fab. The source holds these as a separate data set.
Consider B6, for which the Kd turned out to be 0.38 nM and the “ratio of the Kd of CM03 Fab to the Kd of individual clone” value (from here on “ratio of the Kd of CM03 Fab”) worked out at 4.29.

B7: the Kd came out at 0.58 nM and the “ratio of the Kd of CM03 Fab” value was found to be 2.81.

Take B16: the Kd worked out at 1.9 nM.

On to B17, for which the Kd turned out to be 2.9 nM.

As to B18, the Kd was determined as 1.2 nM.

As to B19, the Kd turned out to be 2.3 nM.

With B20, the Kd came out at 2.3 nM.

Consider B21, for which the Kd amounted to 2.1 nM.

B1: the Kd worked out at 1.5 nM.

B8: the Kd was determined as 1.19 nM and the “ratio of the Kd of CM03 Fab” value came out at 1.37.

On to B9, for which the Kd was 0.96 nM and the “ratio of the Kd of CM03 Fab” value amounted to 1.7.

As to B10, the Kd amounted to 2.53 nM.

On to B11, for which the Kd was determined as 2.12 nM.

With B12, the Kd was determined as 0.92 nM.

As to B2, the Kd came to 2.7 nM.

Turning to B13, the Kd is 2.85 nM.

As to B14, the Kd turned out to be 3.26 nM and the “ratio of the Kd of CM03 Fab” value amounted to 0.5.

B3: the Kd is 3 nM.

Regarding B4, the Kd is 1.2 nM.

For B5, the Kd turned out to be 51 nM.

The next test has the same target. The test is described as follows: SPR (Biacore), Fab. This is another data set of the same source. As to the method: as §1
The CD26 binding partner was as shown below.
Take B16: the Kd was 1.88 nM, the koff worked out at 0.000596 s⁻¹ and the kon stood at 317000 M⁻¹ s⁻¹.

Regarding B17, the Kd was determined as 2.92 nM, the koff came to 0.00083 s⁻¹ and the kon worked out at 285000 M⁻¹ s⁻¹.

B18: the Kd was 1.16 nM, the koff was found to be 0.00067 s⁻¹ and the kon stood at 578000 M⁻¹ s⁻¹.

As to B19, the Kd amounted to 2.31 nM, the koff was 0.000596 s⁻¹ and the kon came to 258000 M⁻¹ s⁻¹.

With B20, the Kd amounted to 2.33 nM, the koff was determined as 0.000687 s⁻¹ and the kon was determined as 294000 M⁻¹ s⁻¹.

In the case of B21, the Kd is 2.1 nM, the koff came to 0.000601 s⁻¹ and the kon was found to be 293000 M⁻¹ s⁻¹.
